Laboratory results taken from publication PMC10397247.
Values belong to the binder of their own block, whether it stands above or below them.

Legend:
4H850-AA = molecular target: T1, 4H850-AA; assay: two-hybrid library CCmax; conditions: mean of both orientations;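 further: natural log of median RNA to DNA barcode read ratio; higher means stronger binding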
T1 chain: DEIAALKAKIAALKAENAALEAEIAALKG

4H2473-AA = molecular target: T2, 4H2473-AA; assay: two-hybrid library CCmax; conditions: mean of both orientations;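 further: natural log of median RNA to DNA barcode read ratio; higher means stronger binding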
T2 chain: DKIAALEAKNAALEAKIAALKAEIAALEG

4H310-AA = molecular target: T3, 4H310-AA; assay: two-hybrid library CCmax; conditions: mean of both orientations;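 further: natural log of median RNA to DNA barcode read ratio; higher means stronger binding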
T3 chain: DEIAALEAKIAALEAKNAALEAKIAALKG

4H745-AA = molecular target: T4, 4H745-AA; assay: two-hybrid library CCmax; conditions: mean of both orientations;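 further: natural log of median RNA to DNA barcode read ratio; higher means stronger binding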
T4 chain: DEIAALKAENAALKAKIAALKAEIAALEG

4H2865-AA = molecular target: T5, 4H2865-AA; assay: two-hybrid library CCmax; conditions: mean of both orientations
T5 chain: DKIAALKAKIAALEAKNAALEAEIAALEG

4H536-AA = molecular target: T6, 4H536-AA; assay: two-hybrid library CCmax; conditions: mean of both orientations
T6 chain: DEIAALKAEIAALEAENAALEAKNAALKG

4H570-AA = molecular target: T7, 4H570-AA; assay: two-hybrid library CCmax; conditions: mean of both orientations
T7 chain: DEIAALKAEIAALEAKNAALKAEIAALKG

4H891-AA = molecular target: T8, 4H891-AA; assay: two-hybrid library CCmax; conditions: mean of both orientations
T8 chain: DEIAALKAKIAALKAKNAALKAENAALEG

4H2725-AA = molecular target: T9, 4H2725-AA; assay: two-hybrid library CCmax; conditions: mean of both orientations
T9 chain: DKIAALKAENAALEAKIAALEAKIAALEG

4H2698-AA = molecular target: T10, 4H2698-AA; assay: two-hybrid library CCmax; conditions: mean of both orientations
T10 chain: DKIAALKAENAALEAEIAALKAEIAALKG

4H2649-AA = molecular target: T11, 4H2649-AA; assay: two-hybrid library CCmax; conditions: mean of both orientations
T11 chain: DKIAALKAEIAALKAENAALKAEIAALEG

4H3165-AA = molecular target: T12, 4H3165-AA; assay: two-hybrid library CCmax; conditions: mean of both orientations
T12 chain: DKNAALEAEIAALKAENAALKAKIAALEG

4H3120-AA = molecular target: T13, 4H3120-AA; assay: two-hybrid library CCmax; conditions: mean of both orientations
T13 chain: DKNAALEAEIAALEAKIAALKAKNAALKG

4H3395-AA = molecular target: T14, 4H3395-AA; assay: two-hybrid library CCmax; conditions: mean of both orientations
T14 chain: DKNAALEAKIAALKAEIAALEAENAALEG

4H2274-AA = molecular target: T15, 4H2274-AA; assay: two-hybrid library CCmax
T15 chain: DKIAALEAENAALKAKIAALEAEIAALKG

4H3016-AA = molecular target: T16, 4H3016-AA; assay: two-hybrid library CCmax; conditions: mean of both orientations
T16 chain: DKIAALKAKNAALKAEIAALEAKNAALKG

4H3753-AA = molecular target: T17, 4H3753-AA; assay: two-hybrid library CCmax; conditions: mean of both orientations
T17 chain: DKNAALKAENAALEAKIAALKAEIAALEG

4H3009-AA = molecular target: T18, 4H3009-AA; assay: two-hybrid library CCmax; conditions: mean of both orientations
T18 chain: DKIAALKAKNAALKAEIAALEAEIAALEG

4H485-AA = molecular target: T19, 4H485-AA; assay: two-hybrid library CCmax; conditions: mean of both orientations
T19 chain: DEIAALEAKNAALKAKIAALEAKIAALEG

4H909-AA = molecular target: T20, 4H909-AA; assay: two-hybrid library CCmax; conditions: mean of both orientations
T20 chain: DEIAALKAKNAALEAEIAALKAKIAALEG

4H2277-AA = molecular target: T21, 4H2277-AA; assay: two-hybrid library CCmax
T21 chain: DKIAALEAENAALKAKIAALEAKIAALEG

4H3697-AA = molecular target: T22, 4H3697-AA; assay: two-hybrid library CCmax; conditions: mean of both orientations
T22 chain: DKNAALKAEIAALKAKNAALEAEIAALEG

4H3410-AA = molecular target: T23, 4H3410-AA; assay: two-hybrid library CCmax; conditions: mean of both orientations
T23 chain: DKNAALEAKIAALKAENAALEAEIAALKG

4H3130-AA = molecular target: T24, 4H3130-AA; assay: two-hybrid library CCmax; conditions: mean of both orientations
T24 chain: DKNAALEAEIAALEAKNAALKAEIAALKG

4H94-AA = molecular target: T25, 4H94-AA; assay: two-hybrid library CCmax; conditions: mean of both orientations
T25 chain: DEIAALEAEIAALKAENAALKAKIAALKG

4H2438-AA = molecular target: T26, 4H2438-AA; assay: two-hybrid library CCmax; conditions: mean of both orientations
T26 chain: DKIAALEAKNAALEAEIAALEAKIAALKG

4H797-AA = molecular target: T27, 4H797-AA; assay: two-hybrid library CCmax; conditions: mean of both orientations
T27 chain: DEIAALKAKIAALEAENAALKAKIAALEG

4H710-AA = molecular target: T28, 4H710-AA; assay: two-hybrid library CCmax; conditions: mean of both orientations
T28 chain: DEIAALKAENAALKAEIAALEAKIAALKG

4H2330-AA = molecular target: T29, 4H2330-AA; assay: two-hybrid library CCmax; conditions: mean of both orientations
T29 chain: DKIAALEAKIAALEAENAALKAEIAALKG

4H3590-AA = molecular target: T30, 4H3590-AA; assay: two-hybrid library CCmax; conditions: mean of both orientations
T30 chain: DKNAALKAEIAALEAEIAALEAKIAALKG

4H458-AA = molecular target: T31, 4H458-AA; assay: two-hybrid library CCmax; conditions: mean of both orientations
T31 chain: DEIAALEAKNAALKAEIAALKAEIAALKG

4H2389-AA = molecular target: T32, 4H2389-AA; assay: two-hybrid library CCmax; conditions: mean of both orientations
T32 chain: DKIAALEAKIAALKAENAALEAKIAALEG

4H930-AA = molecular target: T33, 4H930-AA; assay: two-hybrid library CCmax; conditions: mean of both orientations
T33 chain: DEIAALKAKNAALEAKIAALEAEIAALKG

4H3381-AA = molecular target: T34, 4H3381-AA; assay: two-hybrid library CCmax; conditions: mean of both orientations
T34 chain: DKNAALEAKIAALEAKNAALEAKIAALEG

4H629-AA = molecular target: T35, 4H629-AA; assay: two-hybrid library CCmax; conditions: mean of both orientations
T35 chain: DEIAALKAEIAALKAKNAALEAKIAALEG

4H3865-AA = molecular target: T36, 4H3865-AA; assay: two-hybrid library CCmax; conditions: mean of both orientations
T36 chain: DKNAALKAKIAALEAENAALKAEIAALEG

4H741-bN = molecular target: T37, 4H741-bN; assay: two-hybrid library CCNG1
T37 chain: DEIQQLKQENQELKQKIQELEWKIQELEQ

4H348-bN = molecular target: T38, 4H348-bN; assay: two-hybrid library CCNG1
T38 chain: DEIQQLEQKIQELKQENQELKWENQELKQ

4H754-bH = molecular target: T39, 4H754-bH; assay: two-hybrid library CCNG1
T39 chain: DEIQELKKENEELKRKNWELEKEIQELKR

4H40-bN = molecular target: T40, 4H40-bN; assay: two-hybrid library CCNG1
T40 chain: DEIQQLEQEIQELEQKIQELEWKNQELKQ

4H492-bN = molecular target: T41, 4H492-bN; assay: two-hybrid library CCNG1
T41 chain: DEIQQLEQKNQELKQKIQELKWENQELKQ

4H477-bN = molecular target: T42, 4H477-bN; assay: two-hybrid library CCNG1
T42 chain: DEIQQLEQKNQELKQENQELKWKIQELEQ

interaction score (4H850-AA): -1.39 | interaction score (4H2473-AA): -0.485 | interaction score (4H310-AA): -1.25 | interaction score (4H745-AA): 0.497 | interaction score (4H2865-AA): -1.31 | interaction score (4H536-AA): -1.54 | interaction score (4H570-AA): -1.8 | interaction score (4H891-AA): -1.73 | interaction score (4H2725-AA): 0.181 | interaction score (4H2698-AA): 0.894 | interaction score (4H2649-AA): -1.69 | interaction score (4H3165-AA): -1.19 | interaction score (4H3120-AA): -1.33 | interaction score (4H3395-AA): -1.6 | interaction score (4H2274-AA): 2.45 | interaction score (4H3016-AA): -1.01 | interaction score (4H3753-AA): -1.17 | interaction score (4H3009-AA): 0.108 | interaction score (4H485-AA): -0.34 | interaction score (4H909-AA): -1.73 | interaction score (4H2277-AA): 0.21 | interaction score (4H3697-AA): -1.45 | interaction score (4H3410-AA): -1.36 | interaction score (4H3130-AA): -1.87 | interaction score (4H94-AA): -1.32 | interaction score (4H2438-AA): 0.189 | interaction score (4H797-AA): -1.27 | interaction score (4H710-AA): 0.53 | interaction score (4H2330-AA): -1.13 | interaction score (4H3590-AA): -0.977 | interaction score (4H458-AA): 0.0218 | interaction score (4H2389-AA): -0.987 | interaction score (4H930-AA): -1.05 | interaction score (4H3381-AA): -1.35 | interaction score (4H629-AA): -1.47 | interaction score (4H3865-AA): -0.926
Binder: DKIAALEAENAALKAKIAALEAEIAALKG [4H2274-AA]

interaction score (4H741-bN): -0.495 | interaction score (4H348-bN): -1.05 | interaction score (4H754-bH): -0.689 | interaction score (4H40-bN): -1 | interaction score (4H492-bN): 0.214 | interaction score (4H477-bN): -1.82
Binder: DEIQQLEQKIQELKQENQELKWENQELKQ [4H348-bN]
